Laboratory results taken from patent US20100279383A1.
Where “and” joins values, the source holds several entries; their conditions need not be identical. Equal values may be shown once.

target: anti-Savinase antibody; assay: ELISA, anti-Savinase antibody binding of the variant against Savinase as reference

Row | Substance | Antibody binding capacity shown as Delta-binding
1 | Savinase variant R247E (from UniProt P29600 1-269) (enzyme) | 2 fold
2 | Savinase variant R247Q (from UniProt P29600 1-269) (enzyme) | 2 fold
3 | Savinase variant Y167I + R170L + N218S (from UniProt P29600 1-269) (enzyme) | 4.8 fold
4 | Savinase variant R170L + Q206E (from UniProt P29600 1-269) (enzyme) | 2.1 fold
5 | Savinase variant R247H (from UniProt P29600 1-269) (enzyme) | 2 fold
6 | Savinase variant S57P + Y167F + R247Q (from UniProt P29600 1-269) (enzyme) | 3 fold
7 | Savinase variant S57P + R170L + R247Q (from UniProt P29600 1-269) (enzyme) | 2.1 fold and 2 fold
8 | Savinase variant Y167I + R170L + A194P + N218S (from UniProt P29600 1-269) (enzyme) | 3.2 fold
9 | Savinase variant R247K (from UniProt P29600 1-269) (enzyme) | 2 fold
10 | Savinase variant E136R + N140D (from UniProt P29600 1-269) (enzyme) | 2.1 fold
11 | Savinase variant N140D + A172D (from UniProt P29600 1-269) (enzyme) | 3.8 fold
12 | Savinase variant N18D (from UniProt P29600 1-269) (enzyme) | 2 fold
13 | Savinase variant S57P + R170L (from UniProt P29600 1-269) (enzyme) | 2.1 fold
14 | Savinase variant R170F (from UniProt P29600 1-269) (enzyme) | 2.4 fold
15 | Savinase variant D181N (from UniProt P29600 1-269) (enzyme) | 2.9 fold
16 | Savinase variant R275E (from UniProt P29600 1-269) (enzyme) | 2 fold
17 | Savinase variant E136R (from UniProt P29600 1-269) (enzyme) | 2.8 fold
